In the series the test system is His6-H1.4 (unphosphorylated) (human). Kind of series: EMSA.

As to 216-bp 601 mononucleosome, the binding signal (% shifted (H1-shifted band)) was 35.9.
